T1: BCMA (UniProt Q02223 1-54, limits assumed)
T1 construct: also called antigen; CD269
T1 sequence (looked up): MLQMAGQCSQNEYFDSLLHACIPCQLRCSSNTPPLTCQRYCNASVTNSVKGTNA

B1: belantamab deglycosylated with PNGaseF (antibody, human IgG1, kappa)
heavy: not shown
light: not shown
modifications: N-linked glycans removed with PNGaseF
B2: belantamab mafodotin (antibody, human IgG1, kappa)
heavy: not shown
light: not shown
modifications: MMAF on LC C214 in part of the molecules; MMAF conjugated to interchain cysteine sulfhydryls (sites printed at paragraph 239: HC 224, C230, HC 233); heterogeneous drug load DL0 to DL8, average DAR about 4 (2.1 to 5.7 in the DAR samples of Example 4)
notes: Antibody-drug conjugate: belantamab conjugated to MMAF; Tested as lots, as samples of differing average DAR and as forced-degradation samples (oxidised, base, acid, thermal, photo); the sample is named in each row; also called anti-BCMA ADC; ADC
B3: belantamab mafodotin DL0 species (antibody, human IgG1, kappa)
heavy: not shown
light: not shown
modifications: no drug load
notes: antibody without cytotoxic agent
B4: belantamab mafodotin DL4a species (antibody, human IgG1, kappa)
heavy: not shown
light: not shown
modifications: MMAF on LC C214; drug load of four MMAF; conjugation sites LC C214, HC 224, LC C214 and HC 224
B5: belantamab mafodotin DL6 species (antibody, human IgG1, kappa)
heavy: not shown
light: not shown
modifications: MMAF on LC C214 of one light chain; drug load of six MMAF; conjugation sites as printed: LC C214, HC 224, LC C230, HC 233, LC C230 and HC 233
B6: belantamab mafodotin DL4b species (antibody, human IgG1, kappa)
heavy: not shown
light: not shown
modifications: drug load of four MMAF; conjugation sites as printed: LC C230, HC 233, LC C230 and HC 233
B7: belantamab mafodotin DL2 species (antibody, human IgG1, kappa)
heavy: not shown
light: not shown
modifications: MMAF on LC C214 of one light chain; drug load of two MMAF per antibody; conjugation sites LC C214 and HC 224 (one embodiment)
B8: belantamab mafodotin DL8 species (antibody, human IgG1, kappa)
heavy: not shown
light: not shown
modifications: MMAF on LC C214; drug load of eight MMAF; conjugation sites as printed: LC C214, HC 224, LC C214, HC 224, LC C230, HC 233, LC C230 and HC 233

Target: T1, BCMA
Assay: SPR as in Example 4; glyco-enriched samples of belantamab
Protocol: (§1) The specific binding activity (%) was calculated by dividing the BCMA or FcγRIIIa binding concentration by the absorbance at 280 nm concentration.

| Binder | Specific BCMA binding activity |
| --- | --- |
| B1 | 95% |

Target: T1, BCMA
Assay: SPR, protein A capture; H2O2-treated 1 h; ref std #182407660A
Protocol: as §1

| Binder | % Antigen Specific Binding |
| --- | --- |
| B2 | 99% |

Target: Neonatal Fc Receptor (FcRn) (UniProt P55899 24-297; P61769 21-119, limits assumed)
Assay: SPR specific binding activity, FcRn on NTA chip; ref std #162397940
Protocol: The FcRn binding concentration of the sample was determined by interpolation of the binding response on a calibration curve. Specific binding activity (%) was calculated by dividing the FcRn binding concentration by the total protein concentration.

Chain of Neonatal Fc Receptor (FcRn) (P55899 24-297 limits assumed, form in doubt, chain 1 of 2): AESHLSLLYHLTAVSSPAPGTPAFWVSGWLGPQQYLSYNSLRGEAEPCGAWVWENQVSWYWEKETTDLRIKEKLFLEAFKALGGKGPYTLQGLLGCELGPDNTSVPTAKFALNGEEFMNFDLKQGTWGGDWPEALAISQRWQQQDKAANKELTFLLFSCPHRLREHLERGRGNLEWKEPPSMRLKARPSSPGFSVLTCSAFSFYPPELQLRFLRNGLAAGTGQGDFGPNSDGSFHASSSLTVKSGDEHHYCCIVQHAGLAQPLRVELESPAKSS
Chain of Neonatal Fc Receptor (FcRn) (P61769 21-119 limits assumed, form in doubt, chain 2 of 2): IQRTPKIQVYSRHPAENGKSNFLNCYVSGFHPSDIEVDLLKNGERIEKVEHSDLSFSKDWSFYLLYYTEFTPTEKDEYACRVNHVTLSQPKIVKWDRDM

| Binder | FcRn (%) |
| --- | --- |
| B3 | 108% |
| B4 | 102% |
| B5 | 97% |
| B6 | 99% |
| B7 | 109% |
| B8 | 93% |
| B2 | 101% |

Target: T1, BCMA
Assay: SPR specific binding activity, protein A capture; ref std #162397940
Protocol: as §1

| Binder | BCMA (%) |
| --- | --- |
| B3 | 103% |
| B4 | 95% |
| B5 | 89% |
| B6 | 90% |
| B7 | 99% |
| B8 | 86% |
| B2 | 96% |

Target: T2, FcγRIIIa (UniProt P08637 17-208, limits assumed)
T2 construct: also called CD16a
Assay: as above
Protocol: as §1

T2 sequence (P08637 17-208 limits assumed): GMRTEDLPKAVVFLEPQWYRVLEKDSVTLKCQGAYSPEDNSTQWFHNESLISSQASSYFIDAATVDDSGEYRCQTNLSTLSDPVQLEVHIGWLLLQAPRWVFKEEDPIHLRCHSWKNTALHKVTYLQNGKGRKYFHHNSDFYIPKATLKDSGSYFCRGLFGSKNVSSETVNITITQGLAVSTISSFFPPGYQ

| Binder | FcγRIIIa (%) |
| --- | --- |
| B3 | 110% |
| B4 | 103% |
| B5 | 84% |
| B6 | 91% |
| B7 | 104% |
| B8 | 82% |
| B2 | 97% |
